Where no end group is shown, it is not given here.
Experiments:
[1] = biological target: T1, WT1STHV biotin labeled HCV core peptide (hepatitis C virus, biotin labeled (position not given)); assay: capture EIA; Ab 62.5 ng/mL; bt-peptide 500 ng/mL
T1 peptide: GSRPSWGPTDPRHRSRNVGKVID

[2] = biological target: T2, Mut1T110N biotin labeled HCV core peptide (hepatitis C virus, biotin labeled (position not given)); assay: capture EIA; Ab 62.5 ng/mL; bt-peptide 500 ng/mL
T2 peptide: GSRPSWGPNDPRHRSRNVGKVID

[3] = biological target: T3, C113WT biotin labeled HCV core peptide (hepatitis C virus, also: biotin labeled, position not given here); assay: capture EIA; Ab 250 ng/mL; bt-peptide 500 ng/mL
T3 peptide: RGSRPSWGPTD

[4] = biological target: T1, WT1STHV biotin labeled HCV core peptide; assay: capture EIA; Ab 250 ng/mL; bt-peptide 500 ng/mL
Protocol: (§1) Assay wells were coated with sheep anti-mouse IgG Fc specific antibody and incubated overnight. The coating solution was then removed; the wells blocked using BSA/tween in PBS and then washed with dH2O. […] Next, biotin labeled peptides (diluted to 500 ng/mL in block) were added, the plates incubated for 10 minutes while shaking at 700 rpm and then washed. Peroxidase conjugated streptavidin (diluted to 200 ng/mL in block) was then added to all assay wells, incubated for 20 minutes while shaking at 700 rpm and then washed. Finally, color was developed using OPD and signal quenched using 1N H₂SO₄. Signal was read at 492 nm.

[5] = biological target: T4, C113T109N biotin labeled HCV core peptide (hepatitis C virus, also: biotin labeled, position not given here); assay: capture EIA; Ab 250 ng/mL; bt-peptide 500 ng/mL
T4 construct: also called C113T110N
T4 peptide: RGSRPSWGPND

[6] = biological target: T5, Mut6T110S biotin labeled HCV core peptide (hepatitis C virus, biotin labeled (position not given)); assay: capture EIA; Ab 250 ng/mL; bt-peptide 500 ng/mL
[7] = biological target: T6, 92-133 biotin labeled HCV core peptide (hepatitis C virus, UniProt Q9WMX2 92-133, chain 1: biotin label (bt-pep). Its position and any spacer are not visible in the passages shown.); assay: capture EIA; Ab 250 ng/mL; bt-peptide 500 ng/mL
T6 construct: Only the label 92-133 is printed
T6 peptide: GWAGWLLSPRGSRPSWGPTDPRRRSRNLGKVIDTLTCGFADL
Protocol: as §1

[8] = biological target: T2, Mut1T110N biotin labeled HCV core …; assay: capture EIA; Ab 250 ng/mL; bt-peptide 500 ng/mL
Protocol: as §1

[9] = biological target: T3, C113WT biotin labeled HCV core peptide; assay: capture EIA; Ab 15.6 ng/mL; bt-peptide 500 ng/mL (summary of Table 7)
Protocol: as §1

[10] = biological target: T1, WT1STHV biotin labeled HCV core peptide; assay: as above
Protocol: as §1

[11] = biological target: T4, C113T109N biotin labeled HCV core …; assay: as above
Protocol: as §1

[12] = biological target: T5, Mut6T110S biotin labeled HCV core …; assay: as above
Protocol: as §1

[13] = biological target: T6, 92-133 biotin labeled HCV core peptide; assay: as above
Protocol: as §1

[14] = biological target: T2, Mut1T110N biotin labeled HCV core …; assay: as above
Protocol: as §1

[15] = biological target: T3, C113WT biotin labeled HCV core peptide; assay: capture EIA; Ab 3.906 ng/mL; bt-peptide 500 ng/mL
Protocol: as §1

[16] = biological target: T1, WT1STHV biotin labeled HCV core peptide; assay: capture EIA; Ab 3.906 ng/mL; bt-peptide 500 ng/mL
Protocol: as §1

[17] = biological target: T4, C113T109N biotin labeled HCV core …; assay: capture EIA; Ab 3.906 ng/mL; bt-peptide 500 ng/mL
Protocol: as §1

[18] = biological target: T5, Mut6T110S biotin labeled HCV core …; assay: capture EIA; Ab 3.906 ng/mL; bt-peptide 500 ng/mL
Protocol: as §1

[19] = biological target: T6, 92-133 biotin labeled HCV core peptide; assay: capture EIA; Ab 3.906 ng/mL; bt-peptide 500 ng/mL
Protocol: as §1

[20] = biological target: T2, Mut1T110N biotin labeled HCV core …; assay: capture EIA; Ab 3.906 ng/mL; bt-peptide 500 ng/mL
Protocol: as §1

[21] = biological target: T3, C113WT biotin labeled HCV core peptide; assay: capture EIA; Ab 125 ng/mL; bt-peptide 500 ng/mL
Protocol: as §1

[22] = biological target: T1, WT1STHV biotin labeled HCV core peptide; assay: capture EIA; Ab 125 ng/mL; bt-peptide 500 ng/mL
Protocol: as §1

[23] = biological target: T4, C113T109N biotin labeled HCV core …; assay: capture EIA; Ab 125 ng/mL; bt-peptide 500 ng/mL
Protocol: as §1

[24] = biological target: T5, Mut6T110S biotin labeled HCV core …; assay: capture EIA; Ab 125 ng/mL; bt-peptide 500 ng/mL
Protocol: as §1

[25] = biological target: T6, 92-133 biotin labeled HCV core peptide; assay: capture EIA; Ab 125 ng/mL; bt-peptide 500 ng/mL
Protocol: as §1

[26] = biological target: T2, Mut1T110N biotin labeled HCV core …; assay: capture EIA; Ab 125 ng/mL; bt-peptide 500 ng/mL
Protocol: as §1

B1: Neo4 mouse monoclonal antibody (antibody, V domains shown)
VH: QIQLKESGPAVIKPSQSLSLTCIVSGFSITSSVYCWQWIRQPPGKGLEWMGRICYDGSVDYSPSITSRGTISRDTSLNKVFFQLSSVTNEDTAMYYCSRENHIDYYDTTYPSFDVWGAGTTVTVSS
VL: DIVLTQSPASLIVSLGQRATISCRASKSVNEYGYTYMHWYQQKPGLPPKLLIYLASNLDSGVPARFSGSGSGTDFTLNIHPVEEEDAATYYCQHSRELPYTFGGGTKLEIKR
notes: Mouse hybridoma antibody, isotype IgG1, purified with Protein G; also called HCV Neo4
- signal at 492 nm [1]: 1.85 A492
- signal at 492 nm [2]: 0.139 A492
- signal at 492 nm [3]: 0.0607 A492
- signal at 492 nm [4]: 1.99 A492
- signal at 492 nm [5]: 0.111 A492
- signal at 492 nm [6]: 1.15 A492
- signal at 492 nm [7]: 1.4 A492
- signal at 492 nm [8]: 0.089 A492
- signal at 492 nm [9]: 0.0697 A492
- signal at 492 nm [10]: 1.42 A492
- signal at 492 nm [11]: 0.0736 A492
- signal at 492 nm [12]: 0.25 A492
- signal at 492 nm [13]: 0.806 A492
- signal at 492 nm [14]: 0.0771 A492
- signal at 492 nm [15]: 0.0694 A492
- signal at 492 nm [16]: 0.669 A492
- signal at 492 nm [17]: 0.0717 A492
- signal at 492 nm [18]: 0.0847 A492
- signal at 492 nm [19]: 0.217 A492
- signal at 492 nm [20]: 0.0719 A492
- signal at 492 nm [21]: 0.0599 A492
- signal at 492 nm [22]: 1.93 A492
- signal at 492 nm [23]: 0.0858 A492
- signal at 492 nm [24]: 1.27 A492
- signal at 492 nm [25]: 1.31 A492
- signal at 492 nm [26]: 0.204 A492

From patent US20190170753A1 (ICAHN SCHOOL OF MEDICINE AT MOUNT SINAI, published 2019)
